Assay results: US10584153B2, “Treatment of damaged nerve with PTEN inhibitor” (TISSUEGENE, INC., priority 2013, dated 2020)
Where “and” joins values, the source holds several entries; their conditions need not be identical. Equal entries are not always repeated. No end group written: not given here.

Legend:
PTEN [1] = target: T1, PTEN (Homo sapiens, UniProt P60484); details: from Odriozola et al.; read-out: IC50, in vitro PTEN (Odriozola peptides); cited from earlier work
Target sequence in this assay (P60484 whole entry, species assumed): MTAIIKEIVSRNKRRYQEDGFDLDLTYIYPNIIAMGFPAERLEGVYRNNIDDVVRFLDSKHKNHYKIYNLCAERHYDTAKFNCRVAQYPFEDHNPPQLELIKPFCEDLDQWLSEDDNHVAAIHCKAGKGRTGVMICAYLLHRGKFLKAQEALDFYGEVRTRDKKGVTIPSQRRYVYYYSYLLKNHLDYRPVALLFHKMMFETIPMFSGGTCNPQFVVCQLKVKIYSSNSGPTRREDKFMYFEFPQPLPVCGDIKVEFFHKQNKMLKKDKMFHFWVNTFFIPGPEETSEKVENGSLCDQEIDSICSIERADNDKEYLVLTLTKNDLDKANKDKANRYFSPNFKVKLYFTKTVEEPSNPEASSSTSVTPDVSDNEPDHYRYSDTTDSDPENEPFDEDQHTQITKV

PTEN [2] = target: T1, PTEN; test: In vitro PTEN activity assay / IC50 assay (Malachite Green, C8-PIP3 liposome); format: biochemical; parameters: purchased R&D Systems, Inc; details: 10 μM peptide
Target sequence in this assay (P60484 whole entry): as the sequence (P60484 whole entry, species assumed) above
From the text: In vitro PTEN activity assay was designed to check PTEN lipid phosphatase activity to convert phosphatidylinositol triphosphate (PIP3) to phosphatidylinositol diphosphate (PIP2) and produce phosphate ion (Pi). 1,2-dioctanoyl-sn-glycero-3-phospho-(1′-myo-inositol-3,4,5-triphosphate) (C8-PIP3) was used as PTEN substrate and prepared as lipid vesicle (liposome) with other phospholipids because PTEN as lipid phosphatase is an interfacial enzyme. For liposome preparation, C8-PIP3, DOPS (1,2-dioeloyl-sn-glycero-phosphoserine) and DOPC (1,2-dioeloyl-sn-glycero-phosphocholine) were mixed together with 800 μL of liposome buffer (50 mM Tris, 100 mM NaCl, 10 mM MgCl2, 5 mM DTT, pH=8.0) to final concentration of 0.1 mM of C8-PIP3, 0.25 mM DOPS and 0.25 mM DOPC. The lipid mixture was then sonicated at 4° C. for 30 min to produce liposome. After sonication, the liposome solution was briefly centrifuged to remove remaining lipids.
For PTEN activity assay, 20 ng of recombinant human PTEN protein was mixed with 40 μL of completed liposome solution. […] After incubation, the inorganic phosphate ions produced by PTEN protein was detected using Malachite Green phosphate detection kit. […]
All data represent experimentation in triplicate and the IC50 values were calculated by Prism 5 software (GraphPad Software).

[3] = test system: Akt protein phosphorylation in PC12 cells (PI3K-Akt signaling pathway); test: Akt activation (phosphorylation) level by Western blot in PC12 cells; format: cell-based, rat; details: endogenous or overexpressed PTEN, TGN-1 10 and 100 μM, TGN-4 10 μM, 24 hr
Method: PC12 rat pheochromocytoma cells were seeded to 6-well plate (0.6×10^6 cells/well) and cultured with DMEM media containing 7.5% FBS and 7.5% Goat Serum. After the cell confluency reached around 60˜70%, NGF (nerve growth factor, 50 ng/mL) was added to the PC12 cells for differentiation and incubated for 5 more days. Then, fresh media containing different amounts of TGN peptides in DMSO solution were added to each well and incubated further for 24 hr. For PTEN overexpession, PC12 cells were seeded in 6-well plate (1.0×10^6 cells/well) and differentiated with NGF (50 ng/mL) as above. DNA-Lipofectamine 2000 mixture was prepared for each well of cells to be transfected by firstly adding 2˜2.5 μg of human PTEN c-DNA into 500 μl of Opti-MEM. 3.75-8.75 μl of Lipofectamine 2000™ reagent was added next to the above diluted DNA solution, mixed gently and incubated for 25 minutes at room temperature. Growth media of PC12 cells in 6-well plate was exchanged with fresh media and 500 μl of the DNA-Lipofectamine 2000 complex was added to each well for transfection. Transfected cells were incubated at 37° C. in 5.0% CO2 incubator for 24-48 hours post-transfection before assaying for transgene expression.
After culturing, PC12 cells were collected from the 6-well plate and centrifuged down with bench-top centrifuger to make cell pellet (13,000 rpm, 5 min at RT). […]

Substance | IC50 (PTEN [1]) | Inhibitory effect on in vitro PTEN activity (PTEN [2]) | Activation (phosphorylation) level of Akt protein [3]
Cp23: synthetic phosphomimic peptide of Odriozola et al. encompassing PTEN AA368-390, no phosphorylated Serine residues (DVSDNEPDHYRYSDTTDSDPENE; UniProt P60484 368-390, looked up, fragment) | ~1030 µM and 1030 µM |  | 
RRRRRRRR-DEHDTEYTPDYRQETHFNSQPTDKSDVI-amide (RRRRRRRRDEHDTEYTPDYRQETHFNSQPTDKSDVI-NH2) [TGN-5, TGN-2/TGN-3 scrambled peptide] |  | no significant inhibition | 
RRRRRRRR-SDDEYTDNPDSRYVSDTPVDTEH-amide (RRRRRRRRSDDEYTDNPDSRYVSDTPVDTEH-NH2) [TGN-4, scrambled peptide of TGN-1 peptide, negative control] |  | no significant inhibition | did not increase the activation level of AKT protein
